From patent US20080241867

B1: Papain (protein)
chain: IPEYVDWRQKGAVTPVKNQGSCGSCWAFSAVVTIEGIIKIRTGNLNEYSEQELLDCDRRSYGCNGGYPWSALQLVAQYGIHYRNTYPYEGVQRYCRSREKGPYAAKTDGVRQVQPYNEGALLYSIANQPVSVVLEAAGKDFQLYRGGIFVGPCGNKVDHAVAAVGYGPNYILIKNSWGTGWGENGYIRIKRGTGNSYGVCGLYTSSFYPVKN
B2: Purified Bromelain (protein)
chain: AVPQSIDWRDYGAVTSVKNQNPCGACWAFAAIATVESIYKIKKGILEPLSEQQVLDCAKGYGCKGGWEFRAFEFIISNKGVASGAIYPYKAAKGTCKTDGVPNSAYITGYARVPRNNESSMMYAVSKQPITVAVDANANFQYYKSGVFNGPCGTSLNHAVTAIGYGQDSIIYPKKWGAKWGEAGYIRMARDVSSSSGICGIAIDPLYPTLEE
B3: Proteinase K (protein)
chain: AAQTNAPWGLARISSTSPGTSTYYYDESAGQGSCVYVIDTGIEASHPEFEGRAQMVKTYYYSSRDGNGHGTHCAGTVGSRTYGVAKKTQLFGVKVLDDNGSGQYSTIIAGMDFVASDKNNRNCPKGVVASLSLGGGYSSSVNSAAARLQSSGVMVAVAAGNNNADARNYSPASEPSVCTVGASDRYDRRSSFSNYGSVLDIFGPGTSILSTWIGGSTRSISGTSMATPHVAGLAAYLMTLGKTTAASACRYIADTANKGDLSNIPFGTVNLLAYNNYQA

Biological target: hybrid GFP construct containing the protease cleavage sequence SVPSGCG (SEQ ID NO:21) followed by histidine residues

| Protein | % GFP Released (60 minutes, 37° C.) | Micrograms of GFP Released by Protease (overnight, IMAC beads) | averaged GFP signal (instrument signal times dilution factor, four readings) | fluorescence units of eluant diluted 20-fold | µg GFP Released by Protease (60 minutes, 37° C.) |
| --- | --- | --- | --- | --- | --- |
| B1 | 97% | 244 µg | papain yielded an averaged (over four readings) GFP signal of 282,000 | fluorescence units of 400, 400, and 390, respectively | 109 µg |
| B2 | 98% | 35 µg | bromelain yielded a averaged (over four readings) GFP signal of 281,500 | fluorescence units of 400, 400, and 390, respectively | 109 µg |
| B3 | – | 94 µg | – | – | – |
